We go through six molecules from paper PMC7457611 (bioRxiv, 2020).

Sequences and labels used below:
B1: C110 IgG (antibody, V domains shown)
VH: QVQLQQSGAEVKKPGESLKISCKGSGYSFTSYWIGWVRQMPGKGLEWMGIIYPGDSDTRYSPSFQGQVTISADKSISTAYMQWSSLKASDTAMYYCARSFRDDPRIAVAGPADAFDIWGQGTMVTVSS
VL: DIQMTQSPSTLSASVGDRVTITCRASQSISYWLAWYQQKPGKAPKLLIYQASSLESGVPSRFSGSESGTEFTLTISSLQPDDFATYYCQQYNSYPYTFGQGTKLEIK
B2: C002 IgG (antibody, V domains shown)
VH: EVQLVESGGGVVQPGRSLRLSCAASGFTFSIYGMHWVRQAPGKGLEWVAVISYDGSNKYYADSVKGRFTISRDNSKNTLYLQMNSLRAEDTAVYYCAKEGRPSDIVVVVAFDYWGQGTLVTVSS
VL: not shown
B3: C121 IgG (antibody, V domains shown)
VH: not shown
VL: QSALTQPASVSGSPGQSITISCTGTSSDVGSYNLVSWYQQHPGKAPKLMIYEGSKRPSGVSNRFSGSKSGNTASLTISGLQAEDEADYYCCSYAGSSTLVFGGGTKLTVL
B4: C104 IgG (antibody, V domains shown)
VH: QVQLQQWGAGLLKPSETLSLSCAVYGGSLSGYYWSWIRQPPGKGLEWIGEINHFGSTGYNPSLKSRVTISVDTSKSQFSVKLSSVTAADTAVYYCARKPLLYSNLSPGAFDIWGQGTMVTVSS
VL: EIVLTQSPGTVSLSPGERATLSCWASQSVSASYLAWYQQKPGQAPRLLIYGASSRATGIPDRFSGSGSGTDFTLTISRLEPEDFAVYYCQQYGTTPRTFGGGTKVEIK
B5: C119 IgG (antibody, V domains shown)
VH: QVQLVQSGAEVKKPGASVKVSCKASGYTFTSYYMHWVRQAPGQGLEWMGIINPSGGSTSYAQKLQGRVTMTRDTSTSTVYMELSSLRSEDTAVYYCARANHETTMDTYYYYYYMDVWGKGTTVTVSS
VL: QSALTQPASVSGSPGQSITISCTGTSSDVGGYKYVSWYQRHPGKAPKLMIYDVSNRPSGVSNRFSGSKSGNTASLTISGLQAEDEADYYCSSYTSSSTSVVFGGGTQLTVL
B6: C105 IgG (antibody, V domains shown)
VH: QVQLVESGGGLIQPGGSLRLSCAASGFTVSSNYMSWVRQAPGKGLEWVSVIYSGGSTYYADSVKGRFTISRDNSKNTLYLQMNSLRAEDTAVYYCARGEGWELPYDYWGQGTLVTVSS
VL: QSALTQPPSASGSPGQSVTISCTGTSSDVGGYKYVSWYQQHPGKAPKLMIYEVSKRPSGVPDRFSGSKSGNTASLTVSGLQAEDEADYYCSSYEGSNNFVVFGGGTKLTVL

For this assay, the target named is SARS-CoV-2 spike receptor-binding domain (RBD), residues 331-524 (SARS-CoV-2, early isolate GenBank …, UniProt P0DTC2). The experiment in a line: SPR. Background: SPR reads the build-up and loss of mass on a sensor chip optically.
Take B1: the binding result is listed as “binds”.

Take B2: the binding result was “binds”.

Regarding B3, the binding result was “binds”.

As for B4, the binding result was “binds”.

Turning to B5, the binding result is “binds”.

In the case of B6, the binding result is listed as “binds”.
